Patent US20240059799A1 (Pfizer, published 2024)
Residue numbers refer to the chain shown, from its start.

How the values were obtained:
Assay in all cases: SPR, Biacore 8K+, 37 C; antibody captured by anti-human Fc, cytokine injected
rabbit IL-23 = target: T1, rabbit IL-23 (rabbit)
T1 chain 1: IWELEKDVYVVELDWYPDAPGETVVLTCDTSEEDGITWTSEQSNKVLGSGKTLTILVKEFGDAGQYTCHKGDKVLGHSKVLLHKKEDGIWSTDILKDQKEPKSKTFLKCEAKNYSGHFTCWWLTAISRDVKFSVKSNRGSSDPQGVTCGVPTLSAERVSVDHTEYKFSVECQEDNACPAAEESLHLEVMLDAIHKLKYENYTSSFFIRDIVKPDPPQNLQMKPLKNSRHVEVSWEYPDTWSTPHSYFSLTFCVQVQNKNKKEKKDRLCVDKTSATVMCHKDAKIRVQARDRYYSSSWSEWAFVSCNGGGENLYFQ
T1 chain 2: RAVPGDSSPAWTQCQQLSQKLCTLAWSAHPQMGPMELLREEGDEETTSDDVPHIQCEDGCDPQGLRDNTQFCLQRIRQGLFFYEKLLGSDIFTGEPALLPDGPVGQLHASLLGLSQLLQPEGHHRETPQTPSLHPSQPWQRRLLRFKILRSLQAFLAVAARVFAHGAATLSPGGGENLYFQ
Description: (§1) In order to determine binding to TL1A, kinetic assays were conducted at 37° C. using a collection rate of 10 Hz on a Biacore™ T200 instrument (GE Healthcare). […] For the analysis of the p40 binding arm, kinetic assays were conducted at 37° C. using a collection rate of 10 Hz on a Biacore™ 8 K+ instrument (GE Healthcare).

human IL-12 = target: T2, human IL-12 (human, UniProt P29460 23-328; P29459 23-219)
T2 construct: also called recombinant human IL-12 (p40/p35)
T2 sequence 1: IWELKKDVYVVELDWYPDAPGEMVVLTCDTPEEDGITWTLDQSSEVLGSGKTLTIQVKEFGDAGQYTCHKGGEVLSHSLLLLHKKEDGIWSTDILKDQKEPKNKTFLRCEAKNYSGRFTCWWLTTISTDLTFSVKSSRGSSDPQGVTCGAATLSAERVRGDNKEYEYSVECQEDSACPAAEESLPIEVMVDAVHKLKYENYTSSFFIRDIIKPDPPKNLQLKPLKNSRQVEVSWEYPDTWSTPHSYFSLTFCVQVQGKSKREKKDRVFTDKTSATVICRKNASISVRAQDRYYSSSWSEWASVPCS
T2 sequence 2: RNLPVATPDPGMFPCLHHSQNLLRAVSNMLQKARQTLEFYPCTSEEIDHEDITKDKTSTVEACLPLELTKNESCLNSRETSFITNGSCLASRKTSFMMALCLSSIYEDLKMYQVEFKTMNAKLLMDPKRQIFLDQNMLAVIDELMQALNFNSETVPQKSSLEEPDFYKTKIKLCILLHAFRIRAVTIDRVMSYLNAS
Description: as §1

rabbit IL-12 = target: T3, rabbit IL-12 (rabbit)
T3 chain 1: T1 chain 1
T3 chain 2: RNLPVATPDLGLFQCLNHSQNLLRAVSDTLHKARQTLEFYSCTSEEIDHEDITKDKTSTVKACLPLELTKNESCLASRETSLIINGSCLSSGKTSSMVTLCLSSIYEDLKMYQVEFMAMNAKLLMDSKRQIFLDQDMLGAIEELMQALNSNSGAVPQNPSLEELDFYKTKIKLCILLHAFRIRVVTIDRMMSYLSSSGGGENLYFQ
Description: as §1

human IL-23 = target: T4, human IL-23 (human, UniProt P29460 23-328; Q9NPF7 20-189)
T4 construct: also called recombinant human IL-23 (p40/p19)
T4 sequence 1: T2 sequence 1
T4 sequence 2: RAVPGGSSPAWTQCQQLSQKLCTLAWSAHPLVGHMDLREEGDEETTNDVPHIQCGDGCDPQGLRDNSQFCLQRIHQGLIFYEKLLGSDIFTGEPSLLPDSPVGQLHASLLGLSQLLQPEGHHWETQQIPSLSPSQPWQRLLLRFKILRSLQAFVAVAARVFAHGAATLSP
Description: as §1

cynomolgus monkey IL-23 = target: T5, cynomolgus monkey IL-23 (cynomolgus monkey, limits assumed)
T5 construct: also called cyno IL-23
T5 chain 1: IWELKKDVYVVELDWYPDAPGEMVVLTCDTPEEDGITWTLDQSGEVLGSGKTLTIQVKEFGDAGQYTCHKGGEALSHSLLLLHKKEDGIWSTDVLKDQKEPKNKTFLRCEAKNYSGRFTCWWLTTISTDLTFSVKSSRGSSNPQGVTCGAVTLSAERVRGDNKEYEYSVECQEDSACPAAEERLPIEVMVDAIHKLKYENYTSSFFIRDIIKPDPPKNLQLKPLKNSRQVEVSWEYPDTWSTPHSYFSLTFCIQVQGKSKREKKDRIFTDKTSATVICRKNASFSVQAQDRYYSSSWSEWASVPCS
T5 chain 2: T4 sequence 2 with T12A, H75R, L131P
Description: as §1

mouse IL-23 = target: T6, mouse IL-23 (mouse, UniProt P43432 23-335; Q9EQ14 22-196)
T6 sequence 1: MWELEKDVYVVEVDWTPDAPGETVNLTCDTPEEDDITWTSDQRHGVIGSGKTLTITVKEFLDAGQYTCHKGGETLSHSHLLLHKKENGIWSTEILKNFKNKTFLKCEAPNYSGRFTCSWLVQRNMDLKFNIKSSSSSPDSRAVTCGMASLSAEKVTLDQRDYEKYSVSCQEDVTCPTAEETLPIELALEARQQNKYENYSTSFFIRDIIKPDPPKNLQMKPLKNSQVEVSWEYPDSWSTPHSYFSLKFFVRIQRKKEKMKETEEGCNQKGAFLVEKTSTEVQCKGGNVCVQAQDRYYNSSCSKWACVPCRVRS
T6 sequence 2: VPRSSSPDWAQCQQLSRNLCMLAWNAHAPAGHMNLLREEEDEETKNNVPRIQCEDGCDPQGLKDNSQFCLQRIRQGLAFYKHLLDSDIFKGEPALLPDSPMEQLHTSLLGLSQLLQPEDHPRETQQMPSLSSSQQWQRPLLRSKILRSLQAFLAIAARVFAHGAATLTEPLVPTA
Description: as §1

B1: p40TL1A-0033 bispecific antibody (bispecific antibody, human IgG1, kappa)
heavy: EVQLVQSGAEVKKPGESLKISCKGSGYSFTTYWLGWVRQMPGKGLDWIGIMSPVDSDIRYSPSFQGQVTMSVDKSITTAYLQWNSLKASDTAMYYCARRRPGQGYFDFWGQGTLVTVSSASTKGPSVFPLAPSSKSTSGGTAALGCLVKDYFPEPVTVSWNSGALTSGVHTFPAVLQSSGLYSLSSVVTVPSSSLGTQTYICNVNHKPSNTKVDKKVEPKSCDKTHTCPPCPAPEAAGAPSVFLFPPKPKDTLMISRTPEVTCVVVDVSHEDPEVKFNWYVDGVEVHNAKTKPREEQYNSTYRVVSVLTVLHQDWLNGKEYKCKVSNKALPAPIEKTISKAKGQPREPQVCTLPPSREEMTKNQVSLWCLVKGFYPSDIAVEWESNGQPENNYKTTPPVLDSDGSFFLYSKLTVDKSRWQQGNVFSCSVLHEALHSHYTQKSLSLSPGK
light: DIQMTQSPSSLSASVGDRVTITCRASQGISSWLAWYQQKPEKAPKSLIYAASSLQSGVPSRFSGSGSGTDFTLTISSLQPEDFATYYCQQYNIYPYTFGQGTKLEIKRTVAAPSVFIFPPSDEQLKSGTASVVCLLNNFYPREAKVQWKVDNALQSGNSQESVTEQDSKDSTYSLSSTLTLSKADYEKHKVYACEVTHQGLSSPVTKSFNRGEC
chain 1: not shown
chain 2: QVQLVQSGAEVKKPGASVKVSCKASGYDYTYYGISWVRQAPGQGLEWMGWISTYNTGTHYAPSLQGRVTMTTDTSTSTAYMELRSLRSDDTAVYYCARESYYGSGAFRGGMDVWGQGTTVTVSSASTKGPSVFPLAPSSKSTSGGTAALGCLVKDYFPEPVTVSWNSGALTSGVHTFPAVLQSSGLYSLSSVVTVPSSSLGTQTYICNVNHKPSNTKVDKKVEPKSC
notes: Single cell KiH, modified Fd format; IgG1 effector-function-minimized Fc with LS mutations
Q: What does the source list for B1?
A: binding result (rabbit IL-23): no binding (tested: 200 nM); Kd (human IL-12): 0.123 nM; koff (human IL-12): 0.000258 s⁻¹; kon (human IL-12): 2.1e+06 M⁻¹ s⁻¹; binding result (rabbit IL-12): no binding (tested: 200 nM); Kd (human IL-23): 0.104 nM; koff (human IL-23): 0.000294 s⁻¹; kon (human IL-23): 2.82e+06 M⁻¹ s⁻¹; Kd (cynomolgus monkey IL-23): 0.281 nM; koff (cynomolgus monkey IL-23): 0.000542 s⁻¹; kon (cynomolgus monkey IL-23): 1.93e+06 M⁻¹ s⁻¹; binding result (mouse IL-23): no binding (tested: 200 nM)
